Source: IntAct's records for PubMed 22615398

Legend:
[1] = target: gemi_human GMNN (UniProt O75496)
[2] = target: gemi_human GMNN (UniProt O75496); remark: listed apart in the source

Chain of gemi_human GMNN (O75496 whole entry): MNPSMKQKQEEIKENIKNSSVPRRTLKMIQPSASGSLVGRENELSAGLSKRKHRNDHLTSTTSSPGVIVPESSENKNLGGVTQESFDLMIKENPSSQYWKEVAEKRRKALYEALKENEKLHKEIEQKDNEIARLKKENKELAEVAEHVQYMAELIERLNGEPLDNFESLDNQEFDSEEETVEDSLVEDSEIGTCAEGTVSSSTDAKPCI
Chain of Homeobox protein Hox-C9 (Homo sapiens), P31274 R234A;M245A (P31274 whole entry R234A/M245A): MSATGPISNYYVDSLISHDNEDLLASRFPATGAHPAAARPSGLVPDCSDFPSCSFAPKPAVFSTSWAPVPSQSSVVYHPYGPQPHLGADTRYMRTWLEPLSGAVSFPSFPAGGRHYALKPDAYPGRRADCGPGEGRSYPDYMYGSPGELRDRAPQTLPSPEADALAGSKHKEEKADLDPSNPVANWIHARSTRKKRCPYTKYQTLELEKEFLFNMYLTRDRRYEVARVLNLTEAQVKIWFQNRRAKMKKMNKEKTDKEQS
Chain of Paired box protein Pax-6 (Homo sapiens), P26367 A252R;A263M (P26367 whole entry A252R/A263M): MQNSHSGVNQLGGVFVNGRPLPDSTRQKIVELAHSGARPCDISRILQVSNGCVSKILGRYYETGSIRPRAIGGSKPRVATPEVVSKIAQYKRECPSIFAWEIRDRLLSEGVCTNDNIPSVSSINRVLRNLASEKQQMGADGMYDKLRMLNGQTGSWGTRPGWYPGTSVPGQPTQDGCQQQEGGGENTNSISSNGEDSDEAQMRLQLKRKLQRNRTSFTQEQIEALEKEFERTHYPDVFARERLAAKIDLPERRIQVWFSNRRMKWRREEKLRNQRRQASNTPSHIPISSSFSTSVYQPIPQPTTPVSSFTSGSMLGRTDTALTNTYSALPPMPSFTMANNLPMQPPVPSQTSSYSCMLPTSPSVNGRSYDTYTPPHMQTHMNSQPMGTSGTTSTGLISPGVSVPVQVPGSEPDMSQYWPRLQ
Chain of Homeobox protein Hox-C9 (Homo sapiens), P31274 R193A;K194A;K195A;R196A (P31274 whole entry R193A/K194A/K195A/R196A): as the sequence (P31274 whole entry R234A/M245A) above, with R193A, K194A, K195A, R196A, A234R, A245M counted along it

Substance | effect of a mutation on the interaction [1] | effect of a mutation on the interaction [2]
Homeobox protein Hox-C9 (Homo sapiens), P31274 R193A;K194A;K195A;R196A | decreasing interaction strength | 
Homeobox protein Hox-C9 (Homo sapiens), P31274 R234A;M245A | decreasing interaction strength | 
Paired box protein Pax-6 (Homo sapiens), P26367 A252R;A263M |  | increasing interaction strength
